Measurements as given in patent US20200317768A1 (published 2020).
Changes are numbered by the printed parent chain. Blank lines part the entries; values can stand above or below the binder they belong to.

Legend:
Mouse latent myostatin = biological target: T1, Mouse latent myostatin (mouse, UniProt O08689 26-267; O08689 268-376); assay: SPR (BIACORE T200), 37 C, pH7.4, avidity condition (capture 185 RU), 1:1 fit; pH 7.4
T1 construct: signal 1-24
T1 sequence 1: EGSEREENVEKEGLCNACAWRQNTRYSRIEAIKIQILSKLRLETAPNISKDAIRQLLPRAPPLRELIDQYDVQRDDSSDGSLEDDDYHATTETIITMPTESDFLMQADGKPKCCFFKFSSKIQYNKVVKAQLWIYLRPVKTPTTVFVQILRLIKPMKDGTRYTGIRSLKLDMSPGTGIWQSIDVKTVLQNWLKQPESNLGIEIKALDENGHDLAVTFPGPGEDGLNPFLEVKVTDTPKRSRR
T1 sequence 2: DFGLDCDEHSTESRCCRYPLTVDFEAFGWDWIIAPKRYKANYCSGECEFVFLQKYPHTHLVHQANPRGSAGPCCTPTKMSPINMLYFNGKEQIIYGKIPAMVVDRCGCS

[1] = biological target: T2, Cynomolgus monkey latent myostatin (cynomolgus monkey, UniProt Q95J86 25-266; Q95J86 267-375); assay: as above
T2 construct: signal 1-24; also called Cyno latent myostatin
T2 sequence 1: T1 sequence 1 with G2N, R5Q, E6K, A19T, R25K, Y26S, R59K, A107V, K140E, S173N
T2 sequence 2: T1 sequence 2

Human latent myostatin = biological target: T3, Human latent myostatin (human, UniProt O14793 25-266; O14793 267-375); assay: SPR (BIACORE) as in Example 7; antigen not given, values equal those for human latent myostatin in Table 7
T3 construct: Biotinylated in the ELISAs; also called human myostatin latent form
T3 sequence 1: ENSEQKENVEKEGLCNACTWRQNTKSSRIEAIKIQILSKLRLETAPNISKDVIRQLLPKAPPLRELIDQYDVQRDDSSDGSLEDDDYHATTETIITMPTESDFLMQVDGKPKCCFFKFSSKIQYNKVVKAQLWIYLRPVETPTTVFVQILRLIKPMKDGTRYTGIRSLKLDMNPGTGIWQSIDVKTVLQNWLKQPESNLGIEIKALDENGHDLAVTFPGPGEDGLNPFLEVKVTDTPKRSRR
T3 sequence 2: T1 sequence 2
Description: The kinetic parameters of anti-latent myostatin antibodies against human, cynomolgus monkey (cyno), and mouse latent myostatin were assessed at 37° C. at pH7.4 using a BIACORE® T200 instrument (GE Healthcare). ProA/G (Pierce) was immobilized onto all flow cells of a CM4 chip using amine coupling kit (GE Healthcare). Anti-latent myostatin antibody and analytes were prepared in ACES pH7.4 (20 mM ACES, 150 mM NaCl, 1.2 mM CaCl₂), 0.05% TWEEN® 20, 0.005% NaN₃). […] Then human, cyno, or mouse latent myostatin was injected at 3.125 to 50 nM prepared by two-fold serial dilution, followed by dissociation. The sensor surface was regenerated with 25 mM NaOH. Kinetic parameters were determined by processing and fitting the data to a 1:1 binding model using BIACORE® T200 Evaluation software, version 2.0 (GE Healthcare).
Humanized antibodies were transiently expressed in FS293-F cells, and HEK Blue Assay and BIACORE® analysis were carried out as described above.

[2] = biological target: T4, human FcγRIIaH extracellular domain with C-terminal His-tag (human, UniProt P12318 34-217); assay: SPR (Biacore); KD of SG1 divided by KD of the variant for this FcgR;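 further: relative to parent M103205H795-SG1 carrying the SG1 human heavy chain constant region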
T4 construct: Expressed in FreeStyle 293 cells and purified; also called human FcγRIIa (type H); FcgRIIaH; not shown: C-terminal His-tag
T4 sequence: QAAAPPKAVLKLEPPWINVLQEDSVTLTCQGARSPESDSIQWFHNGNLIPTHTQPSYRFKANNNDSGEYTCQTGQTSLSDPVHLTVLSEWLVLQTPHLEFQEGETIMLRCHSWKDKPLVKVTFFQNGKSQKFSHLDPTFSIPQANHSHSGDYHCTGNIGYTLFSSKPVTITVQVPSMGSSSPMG

[3] = biological target: T5, cynomolgus monkey FcγRIIa1 extracellular domain with C-terminal His-tag (cynomolgus monkey); assay: as above
T5 construct: Expressed in FreeStyle 293 cells and purified; also called cyno FcγRIIa1; cynoFcgRIIa1; not shown: C-terminal His-tag
T5 chain: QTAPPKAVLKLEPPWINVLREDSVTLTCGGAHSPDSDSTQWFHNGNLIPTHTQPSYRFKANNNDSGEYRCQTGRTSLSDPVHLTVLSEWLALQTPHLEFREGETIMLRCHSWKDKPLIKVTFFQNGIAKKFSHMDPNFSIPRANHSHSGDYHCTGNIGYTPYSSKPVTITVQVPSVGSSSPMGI

Kd (Mouse latent myostatin): 0.0471 nM
koff (Mouse latent myostatin): 7.18e-05 s⁻¹
kon (Mouse latent myostatin): 1.52e+06 M⁻¹ s⁻¹
Kd [1]: 0.066 nM
koff [1]: 8.08e-05 s⁻¹
kon [1]: 1.21e+06 M⁻¹ s⁻¹
Kd (Human latent myostatin): 0.075 nM
koff (Human latent myostatin): 9.52e-05 s⁻¹
kon (Human latent myostatin): 1.27e+06 M⁻¹ s⁻¹
B1: MS_M103205H000-SG1/M103202LO00-SK1 (antibody, human IgG1, kappa, V domains shown)
VH: QVTLKESGPVLVKPTETLTLTCTVSGIDLSSYDISWVRQAPGKGLEWVGIISYAGSTYYASWAKGRLTISKDTSKNQVVLTMTNMDPVDTATYYCARGVPAYSTGGDLWGQGTLVTVSS
VL: DIVMTQSPATLSLSPGERATLSCQSSQSVYDNNWLSWFQQKPGQPPKLLIYWASTLASGVPSRFSGSGSGTDFTLTISSLQPEDAATYYCAGGYGGGLYAFGQGTKVEIKR
notes: Humanized MST1032, not pH-dependent; also called MS1032LO00-SG1; Ab001

KD fold (SG1 = 1) [2]: 0.4 fold
KD fold (SG1 = 1) [3]: 1.2 fold
B2: M103205H795-MY180 / M103202L889-SK1 (antibody, human IgG1, kappa)
heavy: QVTLKESGPVLVKPTETLTLTCTVSGIDLSHDDISWVRQAPGKGLEWVGIISYAGSTYYASWAKGRLTISKDTSKNQVVLTMTNMDPVDTATYYCARGVPAYSHGGDLWGQGTLVTVSSASTKGPSVFPLAPSSKSTSGGTAALGCLVKDYFPEPVTVSWNSGALTSGVHTFPAVLQSSGLYSLSSVVTVPSSSLGTQTYICNVNHKPSNTKVDKKVEPKSCDKTHTCPPCPAPELLNGPSVFLFPPKPKDTLMISRTPEVTCVVVDVSEEDPEVKFNWYVDGVEVHNAKTKPREEQYNSTYRVVSVLTVLHQDWLNGKEYKCKVSNKALPAPIEKTISKAKGQPREPQVYTLPPSREEMTKNQVSLTCLVKGFYPSDIAVEWESNGQPENNYKTTPSVLDSDGSFFLYSKLTVDKSRWQQGNVFSCSVMHEALHNHYTQKSLSLSP
light: DIVMTQSPATLSLSPGERATLSCTSSQSVYHANWLSWFQQKPGQPPKLLIYWASTLAYGVPSRFSGSGSGTDFTLTISSLQPEDAATYYCAGGYGGGRYAFGQGTKVEIKRTVAAPSVFIFPPSDEQLKSGTASVVCLLNNFYPREAKVQWKVDNALQSGNSQESVTEQDSKDSTYSLSSTLTLSKADYEKHKVYACEVTHQGLSSPVTKSFNRGEC
notes: Position 396 variant derived from MY052, expressed with M103202L889-SK1 as light chain

KD fold (SG1 = 1) [2]: 0.5 fold
KD fold (SG1 = 1) [3]: 1.4 fold
B3: M103205H795-MY181 / M103202L889-SK1 (antibody, human IgG1, kappa)
heavy: B2 heavy with S398T
light: B2 light
notes: as for B2

KD fold (SG1 = 1) [2]: 0.6 fold
KD fold (SG1 = 1) [3]: 1.7 fold
B4: M103205H795-MY184 / M103202L889-SK1 (antibody, human IgG1, kappa)
heavy: B2 heavy with S398Y
light: B2 light
notes: as for B2

KD fold (SG1 = 1) [2]: 0.5 fold
KD fold (SG1 = 1) [3]: 1.5 fold
B5: M103205H795-MY182 / M103202L889-SK1 (antibody, human IgG1, kappa)
heavy: B2 heavy with S398V
light: B2 light
notes: as for B2

KD fold (SG1 = 1) [2]: 0.6 fold
KD fold (SG1 = 1) [3]: 1.5 fold
B6: M103205H795-MY183 / M103202L889-SK1 (antibody, human IgG1, kappa)
heavy: B2 heavy with S398W
light: B2 light
notes: as for B2
